Assay results published in article doi:10.64898/2025.12.09.693212.

Target: T1, yeast topo II (full-length) (Saccharomyces cerevisiae, UniProt P06786 1-1428)
T1 sequence: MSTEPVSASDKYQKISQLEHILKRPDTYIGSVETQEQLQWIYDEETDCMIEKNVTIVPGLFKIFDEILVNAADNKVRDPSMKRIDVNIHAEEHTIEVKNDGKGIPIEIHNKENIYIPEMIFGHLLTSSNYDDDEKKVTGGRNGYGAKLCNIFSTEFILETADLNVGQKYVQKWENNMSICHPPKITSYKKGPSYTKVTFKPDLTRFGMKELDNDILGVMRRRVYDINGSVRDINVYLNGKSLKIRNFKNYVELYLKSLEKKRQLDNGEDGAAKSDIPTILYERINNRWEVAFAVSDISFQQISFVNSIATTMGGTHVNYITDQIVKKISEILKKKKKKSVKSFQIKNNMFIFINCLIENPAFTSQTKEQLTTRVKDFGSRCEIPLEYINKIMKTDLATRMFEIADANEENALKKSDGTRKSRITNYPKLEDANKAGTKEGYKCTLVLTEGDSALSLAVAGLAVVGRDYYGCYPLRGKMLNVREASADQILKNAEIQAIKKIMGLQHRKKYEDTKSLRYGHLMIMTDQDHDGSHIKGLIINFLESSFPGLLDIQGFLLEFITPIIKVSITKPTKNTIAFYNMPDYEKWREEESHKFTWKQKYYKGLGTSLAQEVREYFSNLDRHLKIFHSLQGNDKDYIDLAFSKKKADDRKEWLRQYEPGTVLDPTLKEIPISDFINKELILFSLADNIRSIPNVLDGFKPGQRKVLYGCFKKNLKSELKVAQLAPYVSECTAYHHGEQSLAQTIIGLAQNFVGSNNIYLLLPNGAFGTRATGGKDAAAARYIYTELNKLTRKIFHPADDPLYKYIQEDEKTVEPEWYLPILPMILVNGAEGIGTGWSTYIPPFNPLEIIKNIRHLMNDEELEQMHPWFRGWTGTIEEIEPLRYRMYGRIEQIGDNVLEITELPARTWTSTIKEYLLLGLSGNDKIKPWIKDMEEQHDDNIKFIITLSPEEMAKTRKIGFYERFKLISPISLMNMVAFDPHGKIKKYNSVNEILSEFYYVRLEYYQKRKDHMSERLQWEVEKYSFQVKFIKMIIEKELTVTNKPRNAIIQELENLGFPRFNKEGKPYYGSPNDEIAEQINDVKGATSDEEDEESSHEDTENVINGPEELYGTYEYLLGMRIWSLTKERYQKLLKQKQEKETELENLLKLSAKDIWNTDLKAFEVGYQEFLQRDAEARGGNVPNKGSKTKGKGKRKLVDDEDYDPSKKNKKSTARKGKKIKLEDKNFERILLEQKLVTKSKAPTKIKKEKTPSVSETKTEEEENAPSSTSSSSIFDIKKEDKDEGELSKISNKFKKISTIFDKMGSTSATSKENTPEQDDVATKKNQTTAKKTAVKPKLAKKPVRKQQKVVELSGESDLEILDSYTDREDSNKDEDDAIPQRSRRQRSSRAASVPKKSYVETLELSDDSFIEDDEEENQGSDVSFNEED
Experiment: EMSA

B1: 51 bp dsDNA (dsDNA)
DNA 1: TATTTTCTTGTTCTTTTACATCAACACAATGTGACCATTACCTGGTTATCA
DNA 2: TGATAACCAGGTAATGGTCACATTGTGTTGATGTAAAAGAACAAGAAAATA
  Kd: ~0.05 µM
